# In article PMC3615143:
# Molecular target: Glut1 (UniProt P11166)
# Test: Flag IP, HA-TXNIP blot
# Details: reference: HA-TXNIP wild type, 2DG-treated cells; sites S308
substance,measurement,value
"TXNIP (from UniProt Q9H3M7) HA-TXNIP S308A, 2DG-treated cells",binding against the reference,stronger
